Assay [1] addresses T1, SREBF2 (human, UniProt Q12772 1-1141, limits assumed).
T1 sequence (looked up): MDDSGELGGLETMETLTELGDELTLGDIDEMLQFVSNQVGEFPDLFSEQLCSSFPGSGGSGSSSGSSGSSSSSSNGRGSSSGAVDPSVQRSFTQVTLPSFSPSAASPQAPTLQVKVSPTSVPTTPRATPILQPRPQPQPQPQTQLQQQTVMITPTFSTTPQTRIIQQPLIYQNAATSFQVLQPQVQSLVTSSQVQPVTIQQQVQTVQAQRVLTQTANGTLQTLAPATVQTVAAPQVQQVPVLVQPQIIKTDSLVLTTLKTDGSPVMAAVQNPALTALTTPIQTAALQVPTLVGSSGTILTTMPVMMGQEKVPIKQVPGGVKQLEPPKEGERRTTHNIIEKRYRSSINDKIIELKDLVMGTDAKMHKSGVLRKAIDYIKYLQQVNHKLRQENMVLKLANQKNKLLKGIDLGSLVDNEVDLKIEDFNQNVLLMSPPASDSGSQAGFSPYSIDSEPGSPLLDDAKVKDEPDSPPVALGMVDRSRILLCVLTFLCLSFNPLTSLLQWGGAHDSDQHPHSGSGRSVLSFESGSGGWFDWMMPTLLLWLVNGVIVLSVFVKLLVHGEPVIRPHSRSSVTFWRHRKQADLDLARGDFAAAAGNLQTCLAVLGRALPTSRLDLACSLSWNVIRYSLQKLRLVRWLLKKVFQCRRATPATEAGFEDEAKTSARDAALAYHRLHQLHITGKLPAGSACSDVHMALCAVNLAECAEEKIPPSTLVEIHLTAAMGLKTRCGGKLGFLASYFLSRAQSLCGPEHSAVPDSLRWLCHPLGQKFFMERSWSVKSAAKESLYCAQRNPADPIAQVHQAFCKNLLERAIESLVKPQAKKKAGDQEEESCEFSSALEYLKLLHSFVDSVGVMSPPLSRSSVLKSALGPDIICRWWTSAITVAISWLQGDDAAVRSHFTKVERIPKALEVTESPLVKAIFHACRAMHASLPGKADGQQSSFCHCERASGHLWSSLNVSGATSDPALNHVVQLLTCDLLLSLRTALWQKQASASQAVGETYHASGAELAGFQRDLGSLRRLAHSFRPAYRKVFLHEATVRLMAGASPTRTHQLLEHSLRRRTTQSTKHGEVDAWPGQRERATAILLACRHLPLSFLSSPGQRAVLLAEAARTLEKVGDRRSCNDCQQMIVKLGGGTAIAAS
The assay is described as follows: IP/MS, LZTR1 wild type-FLAG, U87. The gist of the method:
(§1)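 Gel slices were reduced with 5 mM DTT, alkylated with 11 mM IAA and digested overnight at 37° C. with trypsin. Peptides were analysed on an Orbitrap Fusion Tribrid by LC-MS/MS.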

The target in assay [2] is T2, ABR (human, UniProt Q12979 1-859, limits assumed).
T2 sequence (looked up): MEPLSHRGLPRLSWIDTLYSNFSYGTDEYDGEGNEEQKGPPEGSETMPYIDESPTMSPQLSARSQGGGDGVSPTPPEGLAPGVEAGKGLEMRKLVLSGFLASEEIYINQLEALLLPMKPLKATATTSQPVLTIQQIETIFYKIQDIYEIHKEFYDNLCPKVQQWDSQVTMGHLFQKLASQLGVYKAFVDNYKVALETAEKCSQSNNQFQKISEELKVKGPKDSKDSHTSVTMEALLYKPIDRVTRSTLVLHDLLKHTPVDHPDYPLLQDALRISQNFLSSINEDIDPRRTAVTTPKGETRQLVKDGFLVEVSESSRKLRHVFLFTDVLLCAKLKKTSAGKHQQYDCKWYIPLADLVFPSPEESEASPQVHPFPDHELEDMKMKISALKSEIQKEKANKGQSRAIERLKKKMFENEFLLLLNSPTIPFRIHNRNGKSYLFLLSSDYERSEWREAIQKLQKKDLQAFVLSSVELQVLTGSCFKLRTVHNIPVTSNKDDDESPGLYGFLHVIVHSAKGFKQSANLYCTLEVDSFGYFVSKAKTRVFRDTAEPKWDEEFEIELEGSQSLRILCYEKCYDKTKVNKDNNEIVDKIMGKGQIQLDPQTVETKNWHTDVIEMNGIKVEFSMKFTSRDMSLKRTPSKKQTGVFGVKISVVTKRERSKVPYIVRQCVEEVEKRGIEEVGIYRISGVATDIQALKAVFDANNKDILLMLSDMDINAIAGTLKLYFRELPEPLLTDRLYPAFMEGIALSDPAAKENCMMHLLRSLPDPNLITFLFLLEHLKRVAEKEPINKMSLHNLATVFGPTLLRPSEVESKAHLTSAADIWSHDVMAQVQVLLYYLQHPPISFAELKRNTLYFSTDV
The assay is described as follows: IP/MS, LZTR1 wild type-FLAG, U87. The gist of the method: as §1

B1: LZTR1-FLAG (other, human, UniProt Q8N653 1-840, looked up)
chain: MAGPGSTGGQIGAAALAGGARSKVAPSVDFDHSCSDSVEYLTLNFGPFETVHRWRRLPPCDEFVGARRSKHTVVAYKDAIYVFGGDNGKTMLNDLLRFDVKDCSWCRAFTTGTPPAPRYHHSAVVYGSSMFVFGGYTGDIYSNSNLKNKNDLFEYKFATGQWTEWKIEGRLPVARSAHGATVYSDKLWIFAGYDGNARLNDMWTIGLQDRELTCWEEVAQSGEIPPSCCNFPVAVCRDKMFVFSGQSGAKITNNLFQFEFKDKTWTRIPTEHLLRGSPPPPQRRYGHTMVAFDRHLYVFGGAADNTLPNELHCYDVDFQTWEVVQPSSDSEVGGAEVPERACASEEVPTLTYEERVGFKKSRDVFGLDFGTTSAKQPTQPASELPSGRLFHAAAVISDAMYIFGGTVDNNIRSGEMYRFQFSCYPKCTLHEDYGRLWESRQFCDVEFVLGEKEECVQGHVAIVTARSRWLRRKITQARERLAQKLEQEAAPVPREAPGVAAGGARPPLLHVAIREAEARPFEVLMQFLYTDKIKYPRKGHVEDVLLIMDVYKLALSFQLCRLEQLCRQYIEASVDLQNVLVVCESAARLQLSQLKEHCLNFVVKESHFNQVIMMKEFERLSSPLIVEIVRRKQQPPPRTPLDQPVDIGTSLIQDMKAYLEGAGAEFCDITLLLDGHPRPAHKAILAARSSYFEAMFRSFMPEDGQVNISIGEMVPSRQAFESMLRYIYYGEVNMPPEDSLYLFAAPYYYGFYNNRLQAYCKQNLEMNVTVQNVLQILEAADKTQALDMKRHCLHIIVHQFTKVSKLPTLRSLSQQLLLDIIDSLASHISDKQCAELGADI
notes: Expressed in HEK 293T, HeLa or U87 cells; used as cell lysate; also called LZTR1 wild type-FLAG; LZTR1 WT; not shown: FLAG tag at the C-terminus
For the molecule B1, the binding result in assay [1] and in assay [2] was “binds” throughout.

The record behind these values is US20250262210A1 (TRUSTEES OF COLUMBIA UNIVERSITY IN THE CITY OF NEW YORK, published 2025).
